Patent US20070025992A1 (MOCHIDA PHARMACEUTICAL, published 2007)

T1: GPVI-Fc (fusion protein of the extracellular domain of human GPVI and the Fc fragment of human IgG1) (human, UniProt Q9HCN6 21-267)
T1 construct: extracellular domain; also called human soluble GPVI-Fc; GPVI-hFc; not shown: human IgG1 Fc domain from plasmid pM1304 (printed as '506 amino acids'), joined in frame through a BamHI site
T1 sequence (looked up): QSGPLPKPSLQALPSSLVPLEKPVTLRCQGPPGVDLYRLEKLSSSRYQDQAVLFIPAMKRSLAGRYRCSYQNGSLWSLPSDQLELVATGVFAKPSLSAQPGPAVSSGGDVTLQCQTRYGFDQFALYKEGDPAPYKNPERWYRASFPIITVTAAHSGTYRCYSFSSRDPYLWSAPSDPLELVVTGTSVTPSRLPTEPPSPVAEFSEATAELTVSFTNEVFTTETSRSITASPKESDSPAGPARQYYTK

B1: #2-37 (antibody, V domains shown)
VH: EVQLVESGGGLVKPGGSLRLSCAASGFTFSDYYMSWIRQAPGKGLEWVSYITSSSSYTNYADSVKGRFTISRDNAKNSLYLQMNSLRAEDTAVYYCARDRAVRGVIIIRPPDYWGQGTLVTVSS
VL: QSALTQPASVSGSPGQSITISCTGTSSDVGGYNYVSWYQQHPGKAPKLMIYDVSNRPSGVSNRFSGSKSGNTASLTISGLQAEDEADYYCSSYTSSSTLVFGGGTKLTVL
notes: Human monoclonal antibody from a hybridoma; also called clone #2-37; #2-37 antibody
B2: #2-4 antibody (anti-GPVI monoclonal human antibody produced by hybridoma clone #2-4) (antibody, V domains shown)
VH: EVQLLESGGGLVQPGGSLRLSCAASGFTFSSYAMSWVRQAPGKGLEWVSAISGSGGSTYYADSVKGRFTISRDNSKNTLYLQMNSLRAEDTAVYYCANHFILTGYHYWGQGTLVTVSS
VL: QSVLTQPPSVSAAPGQKVTISCSGSSSNIGNNYVSWYQQLPGTAPKLLIYDNNKRPSGIPDRFSGSKSGTSATLGITGLQTGDEADYYCGTWDSSLSAGVFGGGTKLTVL

What was measured:
[1] = target: T1, GPVI-Fc (fusion protein of the …); experiment: ELISA on immobilized GPVI-Fc (0.25 µg/well), 20 ng purified antibody, peroxidase-labeled anti-human kappa or lambda antibody, absorbance at 450 nm
Description: GPVI binding activity of the purified antibody that was obtained in EXAMPLE 2 was assayed by the ELISA method that was described in EXAMPLE 2. As substitute for the culture supernatant of hybridoma in EXAMPLE 2, 20 ng of the purified anti-GPVI monoclonal human antibody prepared in EXAMPLE 2 was added, and as a control, purified human IgM (Cappel) was used.
Thus it was confirmed that the prepared antibody specifically recognizes GPVI.

[2] = target: T1, GPVI-Fc (fusion protein of the …); experiment: SPR (BIACORE3000), GPVI-Fc immobilized on CM5 chip

| Binder | binding result [1] | Kd [2] |
| --- | --- | --- |
| B1 | binds |  |
| B2 |  | 41.3 nM |
